Results taken from the nanobody polyreactivity screen of Harvey et al. (2022).

Assay: yeast display, Sf9 membrane polyspecificity reagent, FACS + sequencing; frameworks hold sequencing errors
Summary of the method: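 Nanobodies came from a synthetic yeast display library in Saccharomyces cerevisiae BJ5465, induced with galactose for 36–48 hours and stained for 1 hour at 4 °C with 10% biotinylated, detergent-solubilized Sf9 membrane reagent. Cells were enriched on streptavidin microbeads and then FACS-sorted, with low and high (top ~1%) gates set on anti-HA fluorescence for expression and streptavidin fluorescence for reagent binding. Each polyreactivity label reflects the gate a clone came from. Genes were amplified by colony PCR, sequenced by MiSeq 2 × 250 and filtered by CDR length.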

| Sequence | polyreactivity (PSR sort gate) |
| --- | --- |
| QVQLVESGGGLVHAGGSLRLSCAASGSIFGYYTMGWYRQAPGKERELDAAITSGGSTNYADSVKGRFTISRDNAKNTVYLEMNSLKPEDTAVYYCAKVSYYPWRYDDWGQGTKVTVSS | low polyreactivity |
| QVQLVESGGGLVHAGGSLRLSCAASGSIFKPYVMGWYRQAPGKERELVAAITTSGVRTYYADSVKGRFTISRDNAKNTVYLQMNSLKPEDTAVYYCATRRWSWPQFRTGDYWGQGTQVTVSS | high polyreactivity |
| QVQLVESGGGLVHAGGSLRLSCAASGSIFNYYAMGWYRQAPGKERELVAAISYGTGSTYYADSVKWRFTISRDNAKNTDYLQMNSLKPEDTAVYYCAADTRYGYGYWGQGTQVTVSS | high polyreactivity |
| QVQLVESGGGLVHAGGSLRLSCAASGSIFPDNTMGWYRQAPGKERELVAAIDGRGGTTYYADSVKGRFTISRDNAKNTVYLQMNSLKPEDTAVYYCARDIGHSARYDYWGQGTQVTVSS | low polyreactivity |
| QVQLVESGGGLVHAGGSLRLSCAASGSIFTGYAMGWYRQAPGKERELVAAIDYRSGSTYYADSVKGRFTISRDNAKNTVYLQMNSLKPEDTAVYYCAAPAGWGFDEAFGYGYWGQGTQVTVSS | low polyreactivity |
| QVQLVESGGGLVHAGGSLRLSCAASGSIFVWNAMGWYRQAPGKERELVARIRYSSNTYYADSVKGRFTISRDNAKNNVYLQMTSLKPEDTAVYYCAAGSTRYAGWTYNYWGQGTHVTVSS | high polyreactivity |
| QVQLVESGGGLVHAGGSLRLSCAASGSIYYAYAMGGYRQAPGKERELVATITWNGDSTYYADSVKGRFTISLDNAKNTVYLQMNSLKPEDTAVYYCAARYRWPIPGTQYEYWGQGTQVTVSS | low polyreactivity |
| QVQLVESGGGLVHAGGSLRLSCAASGSNFNINAMGWYRQAPGKERELVAAITTSGGRTYYSDSVKGRFTISRDNAKNTVYLQMNSLKPEDTAVYYCNARHLPGSRSWRWITYDYWGQGTQVTVSS | low polyreactivity |
| QVQLVESGGGLVHAGGSLRLSCAASGSTFGRYTMGWYRQAPGKERELVAAISYSSGRTYYADSVKGRFTISRDNGKNTVYLQMNSLKAEDSAVYYCAAVSRGRGEYDYWGQGTQVTVSS | high polyreactivity |
| QVQLVESGGGLVHAGGSLRLSCAASGSTFLPNVMGWYRQAPGTERELVAANSSRGGRTYYADSVKGRFTISRDNAKNTVYLQMNSLKPEDTAVYYCAAYTRDTTGSAGIYRDDYWGQGTQVTVSS | high polyreactivity |
| QVQLVESGGGLVHAGGSLRLSCAASGSTFSRNVMVWYRQAPGKEWELVAAISRGGSTNYADSVKGRFTISRENAKNTVYLQMKSLKPEDTAVYYCNAPRLGKFYNWGQGTQVTVSS | low polyreactivity |
| QVQLVESGGGLVHAGGSLRLSCAASGSTFWYNAMGWYRQAPGKERELVAAITWSGSRTYYSDSVKGRFTISRDNAKNTVYLQMNSLKPEDTAVYYCNRTRSFTRYDVFYGTIPAFDYWGQGTQVTVSS | high polyreactivity |
| QVQLVESGGGLVHAGGSLRLSCAASGSTFYQNGMGWYRQAHGQERELVAALTGDGGSTYYADSVKGRFTISRDNAKNTVSLHMNSLKPEDTAVYYCAADWTVITDSQFNSGYDYWGQGTQVTVSS | low polyreactivity |
| QVQLVESGGGLVHAGGSLRLSCAASGSTLRGYVMGWYRQAPGKERELVAAITQRAGSTYYADSVKGRFTISRDNAKNPVYLQMNSLKAEDTAVYYCNVDRHYAVESGYWGQGTQVTVSS | high polyreactivity |
| QVQLVESGGGLVHAGGSLRLSCAASVSIFASNAMGWYRQAPGKERELVAAITSSGRTKYADSVKGRFTISRDNAKNTVYLQMNSLNPEDTAVYYCAAVYYTYFGRYDYWGQGTQVTVSS | high polyreactivity |
| QVQLVESGGGLVHAGGSLRLSCAAYGRTFYTYAMGWYSQAPGKVRELVAAISSSGSTYYADSVKGRFTISRDNAKYTVYLQMNSLKPEDTAVYYCNARTSRYRRGGDSWGQGTQVTVSS | high polyreactivity |
| QVQLVESGGGLVHAGGSLRLSCADSGSIFGWYVMGWYRQAPGKVREFVAAISSVGSTYYADSVKGRFTISRDNAKNTVSLQMNSLKPEDTAVYYCAKLRYPYLFWDDSEYWGQGTQVTVSS | low polyreactivity |
| QVQLVESGGGLVHAGGSLRLSCAGSGSTFRPYAMGWYRQAPGKERELVAAIRKIGGRTYYADSVKGRFTISRDNAKNTVYLQMNSLKPEDTAVYNCNKRIGGGVHAYNYWGQGTQVSVSS | low polyreactivity |
| QVQLVESGGGLVHAGGSLRLSCPASGRIFPHYAMGWYRQAPGKEREMVAAISGRGGNTYYADSVKGRFTISRDNAKNTVYLQMNSLKPEDTAVYYCAADVSWRPSWGYDYWGQGTQVTVSS | high polyreactivity |
| QVQLVESGGGLVHAGGSLRLSFAASGRTFVNNAMGWYRQAPGKERELVAAITGSCGSTYYADSVKGRFTISRDNAKNTFYLQMNSLKPEYTAVYYCAKRHVGSRYLFDYWGQGTQVTVSS | low polyreactivity |
| QVQLVESGGGLVHAGGSLRLSSAASGRISLSNAMRWYTQAPGKETEFVAAITKRSDRTYYADSVKGRFTNSRDNAKNPVYLQMNSLKPEETAVYYCGAKPLFGTRDDYWGQGTQVTVSS | low polyreactivity |
| QVQLVESGGGLVHAGGSLRLSSSASGSTFPVYAMGWYRQAPGKQRELVAAITSGVSTNYADSVKWRFTISRENAKNTVYLQMNSLKPEDTAVYYCAKDFGLLPIRDDYWGQGTQVTVSS | low polyreactivity |

| Sequence | polyreactivity (PSR sort gate) |
| --- | --- |
| QVQLVESGGGLVHAGGSLSLSCAASGPIFGSYGMGWYRQAPGKERELVAAISYSGGRTFYADSVKGRFTISRDNAKNNVYLQMNSLKPEDTAVYYCNKRYIPSYMSHLDYWGQGTQVTVSS | high polyreactivity |
| QVQLVESGGGLVHAGGSLSLSCAASGSIFGYYAKGWYRQAPGKERELVAAITVSGGSTYYADSVKGRFTISRDNAKNTDYLQLISLKPEDTAVYYCAADDIYGEYYYWGQGTQVTVSS | high polyreactivity |
| QVQLVESGGGLVHAGGTLRLTCAASGFIFKRYTLGWYRQAPGQERELFATINRNGGNTYYADSVKGRFTISRDNAKNTVYLQMNILKPEDTSVYYCNARYWRAQGWPGYDYWGQGTQVTVSS | high polyreactivity |
| QVQLVESGGGLVHAGSSLRLSCAASGSTYPYNAMGWYRQAPGKERELVAAIDYSGGSTYAVSVKGRFTISRDNAKNTVYLQMNSLTPEDTAVYYCAYCRVVVYDVSGDDEDYDYWGQGSQVTVSS | low polyreactivity |
| QVQLVESGGGLVHAVGSHRLSCTASGSTFVAYPMGWYRQAPGKERELVAAITSSGGRTYYADSVKGRFTISRDNSKNTVYLQINSLKPEDTAVYYCAAVTHGRYDWGQGTQVTVSS | high polyreactivity |
| QVQLVESGGGLVHAVGSLRLSCAASGFIFHEYAMGCYIQAPGKERELVAAISSGGGSTYYADSVKGRFTISRDNAKNTVYLQMNSLKPEDTAVYYCAADATAYSVLTRDYWGQGTQVTVSS | high polyreactivity |
| QVQLVESGGGLVKAGGPLRLSCAASGSIFYYNPMGWYRQAPGTERELVAAITSGDSTNYADSVKGRFTISRDNAKNSVYLQLNSLKPEDTAVYYCAADYLAALTYYRTYDYWGEGTQVTVSS | low polyreactivity |
| QVQLVESGGGLVKAGGSLRISCAASGFTFVSYSKGWYRQAPGKERELVADISSGVSTNYADSVKGRFTISRDNAKNTVYLQMNSLNPEDTAVYYCAAYGTKWGRGFYITGYGYWGQGTQVTVSS | low polyreactivity |
| QVQLVESGGGLVKAGGSLRLSCAASGFIFVPYAMGWYRQAPGKERELVAAITWSSGGNTYYADSVKGRFTISRDNAKNTVYLQMNSLKPEDTAVYYCAAEWYEAGYWYDYWGQGTQVTVSS | high polyreactivity |
| QVQLVESGGGLVKAGGSLRLSCAASGFTFTIYAMGWYRQAPGKERELVAAITNSGDTNYADSVKGRFTISRDNAKNTVYLQMNSLKPEDTAVYYCAKAYYIGYFFNFGSWGQGTQVTVSS | low polyreactivity |
| QVQLVESGGGLVKAGGSLRLSCAASGGTFNRNAMGWYRQAPAKERELVAAICSSGGRTYYADSVKGRFTISRDNAKNTVYLQMNSLKPEDTAGYYCAAGRKGHGGAYDSWGQGTQVTVSS | high polyreactivity |
| QVQLVESGGGLVKAGGSLRLSCAASGITFWRYTMGWYRQAPGIERELVAAITSRGGNTYYADSVKGRFTISRDNAKNTVYLQLNSLKPEDTAVNYCNADRYNKYWYDYWGQGTQVTVSS | high polyreactivity |
| QVQLVESGGGLVKAGGSLRLSCAASGLNFNRYTMGWNRQAPGKERELVAVIDCSGGSTRYADSVKGRFTISRDNAKNTVDLQMNSLKPEDTAVYYCDYYWAQGTQVTVSS | low polyreactivity |
| QVQLVESGGGLVKAGGSLRLSCAASGRICSSYAMGWYRQAPGKERELVAAISRGGGRTYYADSVKGRFTNSRDNAKNTVYLQMNSLKPEDTAGYYCAAGRRYASEMDYWGLGTQVTVSS | high polyreactivity |
| QVQLVESGGGLVKAGGSLRLSCAASGRIFDYNAMGWYRQAPGKERELVAAISYSGGGTYYADSVKGRFTISRDYAKNSVYFQMNSLKPEDTAVYYCAKPYYQYYYISYDYWGQGTQVTVSS | low polyreactivity |
| QVQLVESGGGLVKAGGSLRLSCAASGRIFYYNTMGWYRQAPGKERELVAAITTNGGSTYYADSVKGRFTISRDNAKNTVYLQMNSLKPEDTAVYYCNRDRYPYYYAYNYWGQGTQVTVSS | low polyreactivity |
| QVQLVESGGGLVKAGGSLRLSCAASGRTFWIYAMGWYRPAPGKERELRAAISQSSSNTYYADSVKGRVTLSRDNAKNTVYLQMNSLKPEDTAVYYCNAVVLRYQGSWLEYWGQGTQVTVSS | low polyreactivity |
| QVQLVESGGGLVKAGGSLRLSCAASGSIFKSNAMGWYRQAPGKEWELVAAISDSGGSTYYADSVKGRFTISRDNAKNTVYLQMNSLKPEDTAVYYCNADWSWYNYYDFDYWGQGTQVTVSS | low polyreactivity |
| QVQLVESGGGLVKAGGSLRLSCAASGSIFLTYAMGWNRQAPGKERELVAAITQSGGSTYYADSVKGRFTISRDNAKNTVYLQMNSLKPEDTAVYYCAADVFGPQYWWYDYWGQGTQVTVSS | low polyreactivity |
| QVQLVESGGGLVKAGGSLRLSCAASGSIFYFNAMGWYRQAPGKERELVATIRSGDGRTYYADSVKGRFTISRDNAQNTVYLQMNSLKPEDTAVYYCNASRVVYRQAYVYGYDYWGKGTQVTVSS | low polyreactivity |
| QVQLVESGGGLVKAGGSLRLSCAASGSTFDYYAMGWYRQAPGKERELVAAISGSGGSTYYADSVKGRFTISRDIAKNTVYLQMNSLKPEDTAVYYCATVRSRLFGQYYYWGQGTQVTVSS | high polyreactivity |
